Assay: yeast display, Sf9 membrane polyspecificity reagent, FACS + sequencing; frameworks hold sequencing errors
Procedure, shortened: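 Galactose induction of a Saccharomyces cerevisiae BJ5465 synthetic nanobody display library ran 36–48 hours. The cells were then stained for 1 hour at 4 °C with 10% biotinylated, detergent-solubilized Sf9 membrane reagent, pulled down on streptavidin microbeads and FACS-sorted into low and high (top ~1%) gates on expression and reagent-binding fluorescence. Labels for polyreactivity follow the gate of origin.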
In the case of “QDQLVESGGGLVQAGGSLRLSCAPSGFILATNAMGWYRPAPGKERELVAAISYSCGSTNYADSVKGRFTISRDNAKNTVYLQMISLKPVDTAVYYCNDGGSVIWAWYGPVYSWGQGTQVTVSS”, the “polyreactivity (PSR sort gate)” value is reported as “low polyreactivity”.
With “QDQLVESGGGLVQAGGSLRLSCASSGFTFYVYAMGWYRQAPGKERELVAAISRSGSRTYYADSVKGRVTISRDNAQKTVYLQMNSLKPEDTAVYYCARVRPRGLYFVLHYDYWGQGTQVTVSS” the “polyreactivity (PSR sort gate)” value was “high polyreactivity”.
With “QDQLVESGGGLVQAGGSLRLSCASSGRIFRWYAMGWYRQATGKERELVAAISWSGDSTYYADSVKGRFSISRDNAKNNVYLEMNSLKPEDTAVYYCNYVLYKSDYWGQGTQVTVSS” the “polyreactivity (PSR sort gate)” value was “high polyreactivity”.
For “QDQLVESGGGLVQAGGSLRLSCSASGFTITHNAMGWYRQAPGKEREFVATISRSGGRTYYADSVKGRFTISRDNAKNTVFFQMNSLKPEDTPVYYCAARTSGYWYSYGSWGQGTQVTVSS”, the “polyreactivity (PSR sort gate)” value was “high polyreactivity”.
In the case of “QDQLVESGGGLVQAGGSLRLSFAASGFTFDHYAMGWSRQAPGKEREYVARITGTGDSTYYADSVKGRFTISRDNAKNTVYLQMNSLKPEDTAVYYCAKDFTGHYPNGFDYWGQGTQVTVSS”, the “polyreactivity (PSR sort gate)” value is reported as “low polyreactivity”.
With “QDQLVESGGGLVQAGGSLRLSFAASGRIIYYNAMGWYRQAPGKERELVAAISFSDGSTYYADSVKGRFTISRDNAKKTVYLQMNSLKPEDTAVYYCAADIGYYYDYWGQGTLVTVSS” the “polyreactivity (PSR sort gate)” value was “low polyreactivity”.
In the case of “QDQLVESGGGLVQAGGSLRLSFAAYGSTFIVYAMGWYRHAPGKERDLVAAISLDGGSTYYADSVKGRFTISLDNAKNNVYLQMNSLKPEDTAVYYCNADYYANSITYDSWGQGTQVTVSS”, the “polyreactivity (PSR sort gate)” value is reported as “low polyreactivity”.
For “QDQLVESGGGLVQAGGSLRLSGAASGRIFGYYAMGWYRQPPGKETELVARISSGGGSTYYADSVKGRFTISRDNAKNTVYLQLNSLKPEDTAVDYCATVLYPYSPRYDYWGQGTLVTVSS”, the “polyreactivity (PSR sort gate)” value was “high polyreactivity”.
For “QDQLVESGGGLVQAGGSLRLSGAASGRTFRRYAKGWDRQAPGKEREWVATISSGGSTYYADSVKGRFTISRDNAKNTVYLQMNSLKPEDTALYYCAVRYWRAYYRYDYWGQGTQVTVSS”, the “polyreactivity (PSR sort gate)” value was “high polyreactivity”.
For “QDQLVESGGGLVQAGGSLRLTCAASGFIFDRNTMGLYRQATGNDTELVAAISRSGGSTYYSDSVNGRFTISRDNAKNTVYLQMNSMKPEDTAVYNCGALYYYRNRSYYYWGQGTHVTVSS”, the “polyreactivity (PSR sort gate)” value was “high polyreactivity”.
With “QDQLVESGGGLVQAGGSLRLTCAASGGIFWSYAMGWYRQAPGKERDLVAAINWNAGSTYYADSVKGRFTISRDNAKNTVYLQMNSLKPEDTAVYYCAKVQWHLYDWGQGTQVTVSS” the “polyreactivity (PSR sort gate)” value was “high polyreactivity”.
With “QDQLVESGGGLVQAGGSLSLSCAASGLIFSDNAMGWYRQAPGKERELVATITFSGSTNYADSVKGRFTISRDNAKNTVYLQMNSLKPEDTAVFFCAADAGGGPFEYWGQGTHVTVSS” the “polyreactivity (PSR sort gate)” value was “low polyreactivity”.
With “QDQLVESGGGLVQAGGSLSLSCAASGRTLWRNTMGWYRQAPGKERELVAAITTRGGSTYYADSVKGRFTISRDTAKNTVYLQLNSLKPEDTAVYYCAARTYTGEGSGRFYYWGQGTQVTVSS” the “polyreactivity (PSR sort gate)” value was “high polyreactivity”.
In the case of “QDQLVESGGGLVQAGGSLSLSCAASGSTYDRNAMGWYIQAPGKEREMVAGISFSGGTTYYADSVKGRFTISRDNAKNTVYLQMNRLKPEDTEVYDCAASTYQPGAVPFDYWGQGSQVTVSS”, the “polyreactivity (PSR sort gate)” value is reported as “low polyreactivity”.
For “QDQLVESGGGLVQAGGSLSLSCAASRFIYLTYAMGWSRQAPGKERELVAAISSRGGSTYYADSVKGRFTISRDNAKNTVYLQMNSLKPEDTAVYYCAYTRGKYDYWGQGTQVTVSS”, the “polyreactivity (PSR sort gate)” value was “high polyreactivity”.
For “QDQLVESGGGLVQAGVSLRLRSAASGFISQENAMGWYRQAPGKDRELVATISGSVGITYYADSVKGRFTISRDNAKNTVYLQMNSLKPEDTAVYYCNKEISYLSWGYDYWGLGTQVTVSS”, the “polyreactivity (PSR sort gate)” value was “low polyreactivity”.
In the case of “QDQLVESGGGLVQARGTLRLSCAASGRTFYQNAMGWYRHAPGKEREFVGAITGGTGSTHYADSVKGRFTISRDNAKNTVFLQMNSLKPEDTAVYYCATRYLLGFSRYDYCGQGTQVTVSS”, the “polyreactivity (PSR sort gate)” value is reported as “low polyreactivity”.
For “QDQLVESGGGLVQEGGSLRLSCAASGRIFVGYAMGWSRQAPGKERELVAAISSSGGRTYYADSVKGRFTISRDNAKNTVYFQMNSLQPEDTAVYYCAAGRFIWGTWALDYWGQGTQVTVSS”, the “polyreactivity (PSR sort gate)” value was “high polyreactivity”.
For “QDQLVESGGGLVQPGGSLRLSCAASGTIIPRSAMGWYRQATGKERELVAAISQRGGSTFYADSVKWRFTISRDNAKNTVYLQMNRLKPEVTAVYYCAADPGVQRGHIDRMYYWGQGTQVTVSS”, the “polyreactivity (PSR sort gate)” value was “high polyreactivity”.
In the case of “QDQLVESGGGLVQTGGSLRLSWAASGSTFYNTVMGWYRQAPGKERELVAAINSGGRTYYADSVKGRFTISRDNAKNTVYLQMNSLNPEDTAVYYCAVGYGRAARMDYWGQGTQVTVSS”, the “polyreactivity (PSR sort gate)” value is reported as “high polyreactivity”.
In the case of “QDQLVESGGGLVRAGGSLRLSCAASGSIFVVNAMGLYRQAPGKERELVADINSGGSTNFADSVKGRFTISRDNAKNTVYLQMNSLKPEDTAVYYCAKSAVTGTYDYWGQGTLVTVSS”, the “polyreactivity (PSR sort gate)” value is reported as “low polyreactivity”.
With “QDQLVESGGVLFQAGGSLRLTCAAYGRILYHYDMGWYRQAPGKERELVAAITRGAGTNYADSVKGRFTISRDNAKNTVYVQMNSLKPEDTAVYYCNADRFIVTRSRRGDYWGQGTQVTVSS” the “polyreactivity (PSR sort gate)” value was “low polyreactivity”.
With “QDQLVESGGWLVQAGGTLRLSCAASGRILWFYAMGWYRQAPGKERELVASISGSGGSTFYADSVKGRFTISRDNAKNTVYLQMNRLKPEDTAVYYCAAYKEPYYEEYGYWGQGTQVTVSS” the “polyreactivity (PSR sort gate)” value was “low polyreactivity”.
With “QDQLVESGVGIVQAGGSLRLSCAASGSTFGIYAKGWYRQAPGKETELDAAISSGASTNYADSVKGRFTISRDNEKNTVYLQMNSLKQEDTAVYYCAVESVYEYGGYVDSAYDYWGQGTQVTVSS” the “polyreactivity (PSR sort gate)” value was “low polyreactivity”.
For “QDQLVESGVGLVQAGGILRLSCAASVSTFNRYAMVWYRQAPGKERELVAAISSSGGYTYYADSVKGRFTNSRDNAKNTVYFQMNSLKAEDTAVYYCNAAYRVRRFDYWGQGTQVTVSS”, the “polyreactivity (PSR sort gate)” value was “low polyreactivity”.
With “QDQLVESGVGLVQAGGSLRLSCAASGRIFGRYSMGWYRQAPGKEMEFVAAISKRGGGTYYADSVKGRFTISRDNAKNTVYLQMNSLKPEDSAVYYCAVDNSPGFDDYDYWGQGTQVTVSS” the “polyreactivity (PSR sort gate)” value was “high polyreactivity”.
In the case of “QDQLVESGVGLVQPGGSLRLSCAASGITFRKYAMGWYRQAPGKERELVAAIRWSGTRTYYADSVKGRFTISRDNAKNTDYLQMNRLKPEDTAVYYCATVYGATPGRSGLDYWGQGTQVTVSS”, the “polyreactivity (PSR sort gate)” value is reported as “high polyreactivity”.
With “QDQLVESRGGIVQAVRSLRLSCAASGSIFIDNAMGWYRQAPGKESEFVAAISKSATSTYYADSVKGRFTISRDNAYNTVYLEMKSLIPEDTAVYYCAVRRPRPYSNYYYWGQGTQVNVSS” the “polyreactivity (PSR sort gate)” value was “high polyreactivity”.
For “QDQLVESRGGLVQAGGSLRLSCAASGFTFYYYAMGWYRQAPGKERELVAAISSGGSTYYADSVKGRFTISRDNAKNTVYLQMNSLKPEDTAVYYCARLYRVGRYLFDVDSWGQGTQVTVSS”, the “polyreactivity (PSR sort gate)” value was “high polyreactivity”.
In the case of “QDQLVESRGGLVQAGGSLRLSCAASGSISVKYAMGWYRQAPGKERELVAAISSDGNTYYADSVKGRFTISRDNAKYNVYLQMNSLKPEDTAVYYCAPAKVSWFGLKYYYWGQGTQVTVSS”, the “polyreactivity (PSR sort gate)” value is reported as “high polyreactivity”.
With “QDQLVESRGGLVQAGGSLRLSCAASGSTFGKNTMGWYRQAPGKERELVAAISRGVSTYYADSVKGRFTISRDNAKNTVYLQMNSLKPEDTAVYYCAAQEAYRWYGFDYWGQGTQVTVSS” the “polyreactivity (PSR sort gate)” value was “high polyreactivity”.
In the case of “QDQLVESRGGLVQAGGSLRLSCAASGSTLSGNAMGWYRQAPGKERELVAAITSSGGRTYYADSVKGRFTISRDNAKNTVYLQMNSLKPEDTAVYYCAKDRYGWGQGTQVTVSS”, the “polyreactivity (PSR sort gate)” value is reported as “high polyreactivity”.
For “QDQLVESRGVIVQAGGSLRLSCAASGRIFSVNAMGWYRQAPGKERELVAAITGSGTITYYADSVKGRFTISRDNAKNIVYLQMNSLKQEDTAVYYCAARPVLRYYAGYYYWGQGTQVTVSS”, the “polyreactivity (PSR sort gate)” value was “high polyreactivity”.
In the case of “QDQLVESRGVLVQAGGSLRLSCAAYGRIISPYAMGWYRQAPGKERELVAAISRRGTRTNYADSVKGRFTLSRDKAKNTVYLQMNSLKPVDTAVYYCNKTPLLRWGQGTQVSVSS”, the “polyreactivity (PSR sort gate)” value is reported as “high polyreactivity”.
In the case of “QDQLVESVGGLVQAGGSLRLSCAASGITFYYSAMGWDRQAPGKERELVAAISFRGGSTYYADSVKGRFTSSRDNAKNTVYLQMNSLKPEDTAVYYCAAETSPSWYTWVTYDYWGQGTQVTVSS”, the “polyreactivity (PSR sort gate)” value is reported as “high polyreactivity”.
For “QDQLVESVGGLVQAGGSLRLSCAASGSIFRLYAMGWYRHAPGKERELVAGITSSDGSTYADSVKGRFTISRDNAKNTVYLQMNSLKPEDTAVYYCAARGYVRWYNRYDYWGQGTQVTVSS”, the “polyreactivity (PSR sort gate)” value was “low polyreactivity”.
For “QDQLVESVGGLVQAGGSLRLSCAPTGSTFYGYGLAWSRQSPGKARELVAAITGSGDTTYYADSVKGRFTISRDYANNTVYLQMNSLKPEDTAVYYCNARWHAEYDYWGQGTQVTVSS”, the “polyreactivity (PSR sort gate)” value was “low polyreactivity”.
For “QDQLVESVGGLVQAGVSLRLSCAASGGTFDVNAMGWYRQATGKERELVATISGGGSTNYADSVKGRFTISRDNAKNTVYLQMNSLKPEETAVYYCAAESEPIRNRERDYWGQGTQVTVSS”, the “polyreactivity (PSR sort gate)” value was “low polyreactivity”.
In the case of “QDQLVESVGSLVQAGGSHRLSCSASGFIIANNPMGWYRQAPGKERELVATITGGGSTDYADTVKRRFTISRDNAKNTVYLQMNSLKPEDTAVYYCAAEYKYWAFASPSLTTNDSWGQGTQVTVSS”, the “polyreactivity (PSR sort gate)” value is reported as “low polyreactivity”.
With “QDQLVESWGCLVQAGGSLRLSCAASRRIFGGHTMGWYRQAPGKERELVAAITSGRSTTYADSVKGRFTISRDNAKNSVYFLMNSLKPEDTAVDYCAARYVYPNQWTPYIRPYDYWGQGTQVTVSS” the “polyreactivity (PSR sort gate)” value was “low polyreactivity”.
For “QDQLVESWVGLVQAGGSLRLSCAASGTISSYAMGWSRQAPGKERELVASIRYRGGSTYYADSVKGRFTISRDNEKNTVYLQINSLKPEDTAVYYCNAVRVPYVRGAKFEYWGQGTQVTVSS”, the “polyreactivity (PSR sort gate)” value was “low polyreactivity”.
In the case of “QDQLVETGGGLVQAGCSLRLSCAASGRIFVPYAMGWYRQSHGKERELVAAISGSDGSTYYADSVKGRFTISRDNAKNTVYLQMNRLKPEDTAVYYCARLLIYAPPSGSHRYYPFDYWGQGTQETVSS”, the “polyreactivity (PSR sort gate)” value is reported as “low polyreactivity”.
For “QDQPVDSGRCLVQAGGSLRLSCAASGSTFEVYTMGWYRQAPGQERELVAAITKNGGTTYYADSVKGRFTISRDNAKNTVYLLMNSLKPEDTAVYYCAATWPRYGYGYWGQGTQVTVSS”, the “polyreactivity (PSR sort gate)” value was “low polyreactivity”.

From the nanobody polyreactivity screen of Harvey et al. (2022)
